One may read the Kd as the free concentration of one partner at which half of the binding sites on the other are occupied at equilibrium, for simple one-to-one binding. A low value points to a tighter complex. As a reminder, the koff is the rate constant with which the complex falls apart. Read a high koff as a short-lived complex. The term kon denotes a measure of how fast the partners come together.

This note sets out measurements from PMC3257273, “Crystal Structure of a Human Single Domain Antibody Dimer Formed through VH-VH Non-Covalent Interactions” (PLoS ONE, 2012).

This test has as its target T1, human HER2 (ErbB2)/Fc chimera (Homo sapiens, UniProt P04626).
T1 construct: human epidermal growth factor receptor-2 (HER2, ErbB2), the part present in the bought HER2 (ErbB2)/Fc chimera; also called HER2/Fc; human epidermal growth factor receptor-2; source: bought: R&D Systems
The test is described as follows: SPR; Biacore 3000; HER2 amine-coupled on CM5 chip (ovalbumin as reference surface); sdAb injected at 5 to 600 nM, 40 uL/min; room temperature; HBS-EP (10 mM HEPES pH 7.4, 150 mM NaCl, 3 mM EDTA, 0.005% P20); 1:1 Langmuir model. Conditions: both partners purified. (Surface plasmon resonance follows binding to a sensor surface in real time, without labels.)

B1: Gr3 (VHH)
VHH: QVQLVESGGGLIKPGGSLRLSCAASGFTVSYESMGWVRQAPGKGLEWVSAISSSGGSTYYADSVKGRFTISRDNSKNTVYLQMNSLRAEDTAVYYCVTPERQCKQSTCYARPRYWGQGTMVTVSS
notes: differs from Gr6 only in CDR1 and CDR3; selected from a synthetic human VH phage display library; Single-domain antibody from a human VH, not a camelid VHH; the vector may add further C-terminal residues besides the His tag; also called anti-HER2 sdAb Gr3; human VH single-domain antibody; source: E. coli periplasm, purified (IMAC, Ni-NTA / HiTrap chelating HP)
B1 returned a Kd of 68 nM, a koff of 0.02 s⁻¹ and an association rate constant (kon) of 290000 M⁻¹ s⁻¹.
